This is an account of results in patent US20110076232A1 (published 2011).

Test [1] concerns the target wtEGFR-FLAG (N-terminally FLAG-tagged wild-type EGFR on Ba/F3 cells) (human) (UniProt P00533). The test can be described thus: FACS median fluorescence, Ba/F3 cells; reference anti-FLAG M2.
Test [2] addresses C271A/C283A-EGFR (full length, on Ba/F3 cells) (human) (UniProt P00533). Put plainly: FACS median fluorescence, Ba/F3 cells, four clones; reference anti-FLAG M2.
Test [3] has as its target wild-type epidermal growth factor receptor (wtEGFR) (human) (UniProt P00533). Put plainly: Scatchard, A431 cells.
The target in test [4] is T1, 15N-labelled EGFR287-302 peptide with methionine mutated to leucine (human, not fully specified (bridges); cysteine pairing not given here; also: 15N-labelled (residues not given here)).
T1 peptide: CGADSYELEEDGVRKC
The test can be described thus: NMR, perturbation of 15N HSQC spectra.

Test [5] has as its target T2, Peptide C: LEEKKGNYVVTDH(K-Biot)-OH (biotin on the added C-terminal Lys (K-Biot)).
T2 peptide: LEEKKGNYVVTDHK
The test can be described thus: BIAcore, Peptide C on streptavidin chip. For orientation: Surface plasmon resonance follows binding to a sensor surface in real time, without labels.

In test [6] the target is T3, EGFR peptide 287-302 (806 peptide epitope) (human, not fully specified (bridges); printed as 287CGADSYEMEEDGVRKC302; cysteine pairing not given here).
T3 peptide: CGADSYEMEEDGVRKC
Put plainly: BIAcore, immobilised peptide 287-302, antibody 200 nM.

Numbering of substitutions follows the chain as printed. Ends that are not written are not given here.

As for monoclonal antibody 528, the ratio of antibody binding mAb 528/M2 in test [1] was found to be 1.37. The ratio of antibody binding mAb 528/M2 in test [2] was 1.08. In test [3], this molecule registered a binding sites per cell (sites per cell) of 2e+06 and a receptors per cell (receptors per cell) of 2e+06.

B1: Fab fragment of mAb806 (Fab, V domains shown)
VH: DVQLQESGPSLVKPSQSLSLTCTVTGYSITSDFAWNWIRQFPGNKLEWMGYISYSGNTRYNPSLKSRISITRDTSKNQFFLQLNSVTIEDTATYYCVTAGRGFPYWGQGTLVTVSA
VL: DILMTQSPSSMSVSLGDTVSITCHSSQDINSNIGWLQQRPGKSFKGLIYHGTNLDDEVPSRFSGSGSGADYSLTISSLESEDFADYYCVQYAQFPWTFGGGTKLEIKR
notes: papain Fab of the intact mAb; also called Fab806
For the molecule B1, the binding result in test [4] is given as “binds”.

B2: monoclonal antibody 806 (mAb806) (antibody, V domains shown)
VH: B1 VH
VL: B1 VL
notes: murine IgG2b; also called m806
Regarding B2, in test [5], the binding result is recorded as “no binding (tested: 100 nM)”.

B3: monoclonal antibody 1133 (mAb1133) (antibody, V domains shown)
VH: B1 VH with E6G, F33Y, K65R, I88T, V97A
VL: B1 VL with S20N, R39K, E57G, A92G
notes: murine IgG2a
With B3, the “maximal binding (RU)” value in test [6] came out at 800 RU.
